Experimental data as given in patent US20210130436A1 (published 2021).
Changes are numbered by the printed parent chain. Numbers in names are those of the source. One block for each binder: values may come before it.

Key:
[1] = target: T1, CD28 on Jurkat/IL2 reporter cells (human, UniProt P10747 19-220); assay: flow cytometry, Jurkat cells (CD28)
T1 construct: whole, on cells; Endogenous CD28 of Jurkat cells; also called Jurkats (CD28)

[2] = target: T2, human PD-L1, full-length, on CHO cells (human, UniProt Q9NZQ7 19-290); assay: flow cytometry, CHO cells stably expressing PD-L1
T2 construct: also called huPD-L1; CD274

[3] = target: T3, CD28 endogenously expressed on Jurkat/IL2 reporter cells (human, UniProt P10747 19-220); assay: flow cytometry, Jurkat cells (CD28)
T3 construct: also called Jurkats (CD28)

[4] = target: T2, human PD-L1, full-length, on CHO cells; assay: flow cytometry; PD-L1 MFI over CD28 MFI
[5] = target: T3, CD28 endogenously expressed on …; assay: flow cytometry, Jurkat cells (CD28); MFI relative to WT CD80 ECD-Fc
[6] = target: T4, human CTLA4 (CTLA-4), full-length, on CHO cells (human, UniProt P16410 36-223); assay: flow cytometry, CHO cells stably expressing CTLA4
T4 construct: also called huCTLA4

[7] = target: T2, human PD-L1, full-length, on CHO cells; assay: flow cytometry, CHO/PD-L1 cells; MFI relative to WT CD80 ECD-Fc
[8] = target: T4, human CTLA4 (CTLA-4), full-length, on …; assay: flow cytometry, CHO/CTLA4 cells; MFI relative to WT CD80 ECD-Fc
[9] = target: T5, human PD-L1 (full-length, expressed on CHO cells) (human, UniProt Q9NZQ7 19-290); assay: flow cytometry, CHO cells expressing huPD-L1, PE anti-human Fc
T5 construct: also called huPD-L1; CD274

[10] = target: T6, CD28 (endogenously expressed on Jurkat/IL2 reporter cells) (human, UniProt P10747 19-220); assay: flow cytometry, Jurkat/IL2 reporter cells (endogenous CD28), PE anti-human Fc
T6 construct: Endogenous CD28 of Jurkat cells; also called human CD28

T4 sequence (P16410 36-223): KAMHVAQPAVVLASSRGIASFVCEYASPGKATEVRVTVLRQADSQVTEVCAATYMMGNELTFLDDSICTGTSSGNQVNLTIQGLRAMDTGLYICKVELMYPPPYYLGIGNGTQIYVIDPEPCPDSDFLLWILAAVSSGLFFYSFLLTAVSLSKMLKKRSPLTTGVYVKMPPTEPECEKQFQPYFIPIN
T5 sequence (Q9NZQ7 19-290): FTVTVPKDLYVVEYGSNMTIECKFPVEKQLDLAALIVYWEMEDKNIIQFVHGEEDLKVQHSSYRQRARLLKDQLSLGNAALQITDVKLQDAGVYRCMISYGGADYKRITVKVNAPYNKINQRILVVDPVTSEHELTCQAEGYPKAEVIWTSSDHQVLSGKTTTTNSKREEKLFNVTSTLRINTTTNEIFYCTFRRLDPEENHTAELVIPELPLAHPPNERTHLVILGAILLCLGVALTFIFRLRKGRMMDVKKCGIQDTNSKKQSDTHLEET
T2 sequence (Q9NZQ7 19-290): as above

MFI at 33.3 nM [1]: 43 MFI
B1: WT CD80 ECD-Fc H22.6 (Fc fusion, not shown: a dimerising Fc or GST)
chain: VIHVTKEVKEVATLSCGHNVSVEELAQTRIYWQKEKKMVLTMMSGDMNIWPEYKNRTIFDITNNLSIVILALRPSDEGTYECVVLKYEKDAFKREHLAEVTLSVKADFPTPSISDFEIPTSNIRRIICSTSGGFPEPHLSWLENGEELNAINTTVSQDPETELYAVSSKLDFNMTTNHSFMCLIKYGHLRVNQTFNWNTTKQEHFPDN
notes: Control; The token H22.6 is not explained

MFI at 33.3 nM [2]: 1900 MFI | MFI at 33.3 nM [3]: 309 MFI | Ratio of PDL1:CD28 [4]: 6.1 ratio | Fold change to WT CD80 [5]: 0.4 fold | MFI at 33.3 nM [6]: 30800 MFI | Fold change to WT CD80 [7]: 14.8 fold | Fold change to WT CD80 [8]: 0.8 fold
B2: variant CD80 IgV-Fc M47L (Fc fusion, not shown: small tags and cut ends; a dimerising Fc or GST)
chain: VIHVTKEVKEVATLSCGHNVSVEELAQTRIYWQKEKKMVLTMMSGDLNIWPEYKNRTIFDITNNLSIVILALRPSDEGTYECVVLKYEKDAFKREHLAEVTLSVKAD

MFI at 33.3 nM [2]: 23600 MFI | MFI at 33.3 nM [6]: 32200 MFI
B3: variant CD80 IgV-Fc E35D/D46V/V68M/L85Q (Fc fusion, not shown: small tags and cut ends; a dimerising Fc or GST)
chain: B2 chain with E35D, D46V, L47M, V68M, L85Q

MFI at 33.3 nM [2]: 28000 MFI | MFI at 33.3 nM [3]: 2180 MFI | Ratio of PDL1:CD28 [4]: 12.8 ratio | Fold change to WT CD80 [5]: 3.1 fold | MFI at 33.3 nM [6]: 34700 MFI | Fold change to WT CD80 [7]: 219 fold | Fold change to WT CD80 [8]: 0.9 fold
B4: variant CD80 IgV-Fc D46V/M47L/V68M (Fc fusion, not shown: small tags and cut ends; a dimerising Fc or GST)
chain: B2 chain with D46V, V68M

MFI at 33.3 nM [2]: 97 MFI | MFI at 33.3 nM [3]: 35 MFI | MFI at 33.3 nM [6]: 3000 MFI
B5: variant CD80 IgV-Fc L85Q (Fc fusion, not shown: small tags and cut ends; a dimerising Fc or GST)
chain: B2 chain with L47M, L85Q

MFI at 33.3 nM [9]: 39100 MFI | MFI at 33.3 nM [10]: 276 MFI
B6: variant CD80 IgV-Fc Q33K/E35D/M47V/K89E/K93R (Fc fusion, not shown: a dimerising Fc or GST)
chain: B2 chain with Q33K, E35D, L47V, K89E, K93R

MFI at 33.3 nM [2]: 29700 MFI | MFI at 33.3 nM [6]: 32500 MFI
B7: variant CD80 IgV-Fc D46V/M47L/V68M/L85Q (Fc fusion, not shown: small tags and cut ends; a dimerising Fc or GST)
chain: B2 chain with D46V, V68M, L85Q

MFI at 33.3 nM [2]: 2200 MFI | MFI at 33.3 nM [3]: 131 MFI | Ratio of PDL1:CD28 [4]: 16.8 ratio | Fold change to WT CD80 [5]: 0.2 fold | MFI at 33.3 nM [6]: 41900 MFI | Fold change to WT CD80 [7]: 17.2 fold | Fold change to WT CD80 [8]: 1 fold
B8: variant CD80 IgV-Fc D46V/L85Q (Fc fusion, not shown: small tags and cut ends; a dimerising Fc or GST)
chain: B2 chain with D46V, L47M, L85Q

MFI at 33.3 nM [9]: 36100 MFI | MFI at 33.3 nM [10]: 282 MFI
B9: variant CD80 IgV-Fc Q27H/E35D/M47L/L85Q/R94Q/E95K (Fc fusion, not shown: a dimerising Fc or GST)
chain: B2 chain with Q27H, E35D, L85Q, R94Q, E95K

MFI at 33.3 nM [9]: 36900 MFI
B10: variant CD80 IgV-Fc E35D/M47I/K54R/L85E (Fc fusion, not shown: a dimerising Fc or GST)
chain: B2 chain with E35D, L47I, K54R, L85E

MFI at 33.3 nM [2]: 3970 MFI | MFI at 33.3 nM [6]: 50100 MFI
B11: variant CD80 IgV-Fc E35D/D46V (Fc fusion, not shown: small tags and cut ends; a dimerising Fc or GST)
chain: B2 chain with E35D, D46V, L47M

MFI at 33.3 nM [2]: 7990 MFI | MFI at 33.3 nM [6]: 45000 MFI
B12: variant CD80 IgV-Fc E35D/D46V/M47L (Fc fusion, not shown: small tags and cut ends; a dimerising Fc or GST)
chain: B2 chain with E35D, D46V

MFI at 33.3 nM [2]: 29300 MFI | MFI at 33.3 nM [6]: 34300 MFI
B13: variant CD80 IgV-Fc E35D/D46V/M47L/V68M (Fc fusion, not shown: small tags and cut ends; a dimerising Fc or GST)
chain: B2 chain with E35D, D46V, V68M

MFI at 33.3 nM [2]: 4170 MFI | MFI at 33.3 nM [6]: 7570 MFI
B14: variant CD80 IgV-Fc D46V/V68M/L85Q (Fc fusion, not shown: small tags and cut ends; a dimerising Fc or GST)
chain: B2 chain with D46V, L47M, V68M, L85Q
